Reference: patent US20060217308A1, “Compositions for the treatment of tumor pathologies, comprising internalin B (ln1B) of Listeria monocytogene protein or a fragment thereof” (priority 2005, published 2006)

Legend:
Type in all cases: cell-based, human
[1] = tested on: Met; assay: Nature of In1B-dependent ubiquitination of Met (FK1 versus P4D1 antibodies); settings: HeLa cells, In1B 5 nM, FK1 did not recognize
Description: (A) In1B was added (+) to HeLa cells. Lysates were immunoprecipitated using C12 rabbit polyclonal anti-Met antibody and blotted against Met (DL21 mAb). The same membrane was stripped and blotted against ubiquitin using FK1, a mAb that recognizes poly-ubiquitinated proteins, or P4D1, a mAb that recognizes both poly- and mono-ubiquitinated proteins. (B) Total cell extracts from Hela cells treated with […] epoximycin (lane 2) or […] clasto-lactacystin-β-lactone (lane 3) for 60 minutes, or non-treated cells (lane 1) were blotted against poly-ubiquitin (FK1) or actin. (C) ubiquitin ladder was blotted with FK1 or P4D1. The number of ubiquitin modules is indicated on the right. The molecular weight of protein markers is shown in the left of the panels, in kDa. In D and E, Hela Cells were transfected with siRNA to knock down Cbl expression (RNAi), or with RNA control (Control). (D) Cellular Cbl and actin were detected by immunoblotting. […]
The rapid degradation of Met after In B contact is different from the HGF-dependent degradation, which has been reported to take two hours (19-21), indicating differences in the biochemistry of the process. […] Samples from HeLa cells treated with In1B (5 nM) were immunoprecipitated using an anti-Met antibody, and then Met-immunoprecipitates were analyzed with an anti Met mAb (FIG. 3A1), FK1 (FIG. 3A2) or P4D1 (FIG. 3A3). […]

[2] = tested on: Met; assay: In1B-induced degradation of Met, anti-Met immunoblot of total HeLa cell extracts
Description: FIG. 2 depicts the degradation and de-novo synthesis of Met. (A) HeLa cells were treated at the indicated times with 5 nM In1B and cellular extracts were blotted against Met. (B) Cells were treated as in A, but blotted at the same time with anti-Met antibody and Streptavidin. Stars indicate nonspecific bands recognized by streptavidin and the square indicates Met. (C) The experiment was performed as in A, but cells were pre-treated with […] of cycloheximide for 90 minutes before addition of In1B. (D) This experiment was performed as in A, but In1B was removed three minutes after it was added. Actin is shown as the loading control in A, C and D. The molecular mass of the markers is indicated in kDa.
Cells, bacteria and growth conditions. The human cell line used was HeLa (ATCC number CCL-2) grown as recommended by ATCC. Typically, cells were serum starved for three hours before the addition of In1B. The bacterial strains used were Listeria monocytogenes BUG600 and BUG1461. They were grown in BHI medium, which in the case […] contained 5 μg/ml of erythromycin.
Assays. Immunoprecipitation, Re-immunoprecipitation, and immunoblots were performed as described before (31). In1B purification was performed as described (54).
To study In1B-induced degradation of Met in more detail, HeLa cells were treated during increasing periods with In1B (5 nM) and anti-Met immunoblots were performed directly on total cell extracts (FIG. 2A).
When In1B is present, de-novo synthesized Met was in turn ubiquitinated and then degraded (FIG. 2A).

[3] = tested on: Met; assay: Kinetics of phosphorylation of Met after In1B (IP Met, blot phospho-tyrosine); settings: HeLa cells, In1B 5 nM (FIG. 8)
Description: FIG. 8 depicts the kinetics of phosphorylation and ubiquitination of Met. 5 nm of purified In1B was added to HeLa cells for the indicated times. Cell extracts were immunoprecipitated (IP) against Met and blotted (WB) against phospho-tyrosine (P-Tyr), Met or ubiquitin (Ub).
Ligand-induced ubiquitination of RTKs is preceded by phosphorylation of the receptor, which is then recognized and ubiquitinated by the ubiquitin ligase Cbl (33). As previously shown (27), In1B rapidly stimulates Met phosphorylation and the kinetics of ubiquitination of Met follows that of phosphorylation with a maximum at two minutes after stimulation (FIG. 8).

[4] = tested on: Met; assay: Maintenance of InIB-induced degradation of Met in the presence of HGF; settings: HeLa cells, HGF 1 nM + InIB 5 nM, 1% serum medium
Description: FIG. 9 depicts immunodetection of Met from total cell lysates. Serum-containing media (1%) with HGF (1 nM), HGF (1 nM)+InIB (5 nM), or without either HGF or InIB (control) was added to HeLa cells. Cells were recovered at the indicated times after addition of HGF, and HGF+InIB, resuspended in SDS-PAGE sample buffer, and immediately boiled for 5 minutes.
Shortly after InIB treatment, Met is very rapidly degraded. Thus, whether InIB-induced degradation of Met is maintained for longer periods of time was tested. In fact, InIB-induced degradation of Met is maintained in time.

Sequence of Met (P08581 25-1390): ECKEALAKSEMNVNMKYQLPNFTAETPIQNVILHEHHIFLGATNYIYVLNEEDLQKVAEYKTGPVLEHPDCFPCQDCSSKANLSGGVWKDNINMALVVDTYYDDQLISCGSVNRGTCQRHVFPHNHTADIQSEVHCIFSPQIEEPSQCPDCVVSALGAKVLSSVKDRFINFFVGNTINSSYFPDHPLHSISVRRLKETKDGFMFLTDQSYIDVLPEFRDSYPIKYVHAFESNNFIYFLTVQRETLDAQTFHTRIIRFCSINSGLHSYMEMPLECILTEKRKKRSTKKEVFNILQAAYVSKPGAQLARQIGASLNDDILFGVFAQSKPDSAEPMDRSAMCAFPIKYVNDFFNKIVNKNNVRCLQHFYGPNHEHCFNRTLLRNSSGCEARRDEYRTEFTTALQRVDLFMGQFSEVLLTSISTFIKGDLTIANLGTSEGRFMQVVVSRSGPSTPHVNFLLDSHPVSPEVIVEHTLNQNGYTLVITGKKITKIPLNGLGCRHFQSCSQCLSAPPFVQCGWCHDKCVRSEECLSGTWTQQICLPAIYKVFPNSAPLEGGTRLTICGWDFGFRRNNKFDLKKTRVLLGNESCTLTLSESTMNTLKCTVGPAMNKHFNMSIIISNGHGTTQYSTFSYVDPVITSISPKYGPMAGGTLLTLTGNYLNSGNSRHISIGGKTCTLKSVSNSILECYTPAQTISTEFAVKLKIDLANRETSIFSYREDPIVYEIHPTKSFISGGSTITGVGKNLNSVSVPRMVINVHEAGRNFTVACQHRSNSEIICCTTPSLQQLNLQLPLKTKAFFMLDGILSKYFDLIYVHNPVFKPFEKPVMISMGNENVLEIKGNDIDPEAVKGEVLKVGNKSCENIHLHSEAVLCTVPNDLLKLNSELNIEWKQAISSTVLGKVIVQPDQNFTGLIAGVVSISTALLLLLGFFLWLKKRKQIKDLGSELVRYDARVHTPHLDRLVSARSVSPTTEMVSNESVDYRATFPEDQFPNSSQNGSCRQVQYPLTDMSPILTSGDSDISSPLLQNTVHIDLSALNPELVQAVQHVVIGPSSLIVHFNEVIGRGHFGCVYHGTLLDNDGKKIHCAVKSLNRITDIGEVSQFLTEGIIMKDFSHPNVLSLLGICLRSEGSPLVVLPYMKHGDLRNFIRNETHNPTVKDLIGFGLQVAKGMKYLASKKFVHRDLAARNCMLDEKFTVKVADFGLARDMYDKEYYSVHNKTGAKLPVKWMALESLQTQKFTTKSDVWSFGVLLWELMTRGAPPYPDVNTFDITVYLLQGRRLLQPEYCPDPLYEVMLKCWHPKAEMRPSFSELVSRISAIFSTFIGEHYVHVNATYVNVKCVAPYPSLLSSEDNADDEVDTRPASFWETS

B1: In1B: Listeria monocytogenes surface protein of the internalin family that interacts with Met; purified soluble protein (protein, UniProt P0DQD2 31-630, looked up)
Internalin B: AKVQAETITVPTPIKQIFSDDAFAETIKDNLKKKSVTDAVTQNELNSIDQIIANNSDIKSVQGIQYLPNVTKLFLNGNKLTDIKPLANLKNLGWLFLDENKVKDLSSLKDLKKLKSLSLEHNGISDINGLVHLPQLESLYLGNNKITDITVLSRLTKLDTLSLEDNQISDIVPLAGLTKLQNLYLSKNHISDLRALAGLKNLDVLELFSQECLNKPINHQSNLVVPNTVKNTDGSLVTPEIISDDGDYEKPNVKWHLPEFTNEVSFIFYQPVTIGKAKARFHGRVTQPLKEVYTVSYDVDGTVIKTKVEAGTRITAPKPPTKQGYVFKGWYTEKNGGHEWNFNTDYMSGNDFTLYAVFKAETTEKAVNLTRYVKYIRGNAGIYKLPREDNSLKQGTLASHRCKALTVDREARNGGKLWYRLKNIGWTKAENLSLDRYDKMEYDKGVTAYARVRNASGNSVWTKPYNTAGAKHVNKLSVYQGKNMRILREAKTPITTWYQFSIGGKVIGWVDTRALNTFYKQSMEKPTRLTRYVSANKAGESYYKVPVADNPVKRGTLAKYKNQKLIVDCQATIEGQLWYRIRTSSTFIGWTKAANLRAQK
nature of In1B-dependent ubiquitination of Met [1]: mono-ubiquitination rather than poly-ubiquitination
time after addition at which In1B-induced degradation of Met is observable [2]: one
total amount of Met two minutes after addition of In1B ([2]; HeLa cells, In1B 5 nM, 2 minutes): strongly reduced
specificity of the In1B effect for Met versus other cellular proteins ([2]; HeLa cells, In1B 5 nM, blot with anti-Met antibody and Streptavidin, actin control): only affected the amount of Met
degradation of re-synthesized Met when In1B was removed from the medium ([2]; HeLa cells, In1B removed three minutes after addition, 15 minutes after initial exposure): no degradation of Met was observed
time of maximum of Met phosphorylation and ubiquitination after stimulation [3]: two
time for which InIB-induced degradation of Met is maintained [4]: at least 24 hours
